Assay results as given in the supplement of paper PMC12764529.
± gives the half width of the 95% confidence interval.

Assays:
[1] = folding stability dG unfold from trypsin proteolysis; higher = more stable
Procedure, shortened: (§1)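 Bayesian fitting of sequencing counts gave K50 for each design. Unfolding free energy followed by setting this against a sequence-predicted unfolded-state K50 and a shared folded-state K50, either per protease or with trypsin and chymotrypsin combined. The designs, under 80 residues and lacking cysteine, were digested in a PA-tagged cDNA display format at 11 threefold-diluted protease concentrations and without protease, and only those with AlphaFold2 dimer inter-PAE above 15 were kept.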

[2] = folding stability dG unfold from chymotrypsin proteolysis; higher = more stable
Procedure, shortened: as §1

[3] = folding stability dG unfold (combined trypsin and chymotrypsin); higher = more stable
Procedure, shortened: as §1

Row | Sequence | folding stability dG unfold [1] | folding stability dG unfold [2] | folding stability dG unfold [3]
1 | SAGAKAEPGPSGRLRIYLPDEPIELDVTEDGTVTLTFPNGEKVEFPVEKEKAALVLAELNALGAVVVPQSAG [r5_753_TrMRF] | -0.367 ± 0.19 kcal/mol | 1.09 ± 0.055 kcal/mol | 0.712 ± 0.084 kcal/mol
2 | SAGGSAKKKEKKVEKKVITIEVEPGVKTPEEMLEAIRKLKEEYPDTKIIIKASDEQKEALKRLLKESAGGSA [r15_89_TrROS_Hall] | 0.669 ± 0.16 kcal/mol | 0.879 ± 0.14 kcal/mol | 0.767 ± 0.3 kcal/mol
3 | SAGGSAGGSAGGKILVITAKIEDIPEIIEAAKKLGIDSVIIDIPETKEKIIITKDSVKLISAGGSAGGSAGG [r7_564_TrMRF] | 1.54 ± 0.057 kcal/mol | 1.76 ± 0.089 kcal/mol | 1.63 ± 0.14 kcal/mol
4 | SELVEKAAEKGVKEIHIYLSEEQREAILKAADAGVKITIHLPEGATVEELKALPGIKVDKVEVFSPEELKSA [r9_671_TrROS_Hall] | 0.273 ± 0.044 kcal/mol | -0.078 ± 0.082 kcal/mol | 0.0735 ± 0.14 kcal/mol
5 | SAGGSAVERLRELLKELGVEVTVERKDGKVYIRVEASPEKREKLAEALRELFGKDIEIEVLEEGEEPSAGGS [r16_514_TrROS_Hall] | 3.86 ± 0.18 kcal/mol | 3.17 ± 0.073 kcal/mol | 3.49 ± 0.08 kcal/mol
6 | SAGSSISSISRSPVSTEEDPSTNVRRTTYLEKYPGPPNLLKEVTVTTTFAPDGTPTVTPAVTTLSPALLSAG [r5_48_JUSTAS] | -0.817 ± 0.26 kcal/mol | -0.899 ± 0.68 kcal/mol | -0.717 ± 0.17 kcal/mol
7 | SAGGVITIRIPGIDNRNPETMRSKAVEIADRLRDHGVTVTDVEWDPDQGSMTITVMLPGQSLEDILKSAGGS [r8_344_TrROS] | 1.89 ± 0.062 kcal/mol | 2.69 ± 0.051 kcal/mol | 2.42 ± 0.084 kcal/mol
8 | SAGGSAGGSSVEYTFLSKNPEEAKKKFEEKIKEIEEKGEGKIEKAEFTIVSPDNPEYLKLISSSAGGSAGGS [r12_551_JUSTAS] | 0.213 ± 0.05 kcal/mol | 0.136 ± 0.26 kcal/mol | 0.259 ± 0.13 kcal/mol
9 | SAGGSPPPLRITYKIRMGGQPFEWTIPIPADDLPPGQQIEIDIRIKKMDPENNRMRMEIDDVEVTPSAGGSA [r2_479_TrROS] | -0.209 ± 0.32 kcal/mol | 0.979 ± 0.27 kcal/mol | 0.76 ± 0.19 kcal/mol
10 | MMLIIKVKNKKTGKTETIKIDMSVEEIKNAIKELKKKNPNAKVTIIGVKTEEVRKALKEAGIEKIEVKPLPS [r1_114_TrROS_Hall] | 3.01 ± 0.23 kcal/mol | 3.5 ± 0.22 kcal/mol | 3.51 ± 0.31 kcal/mol
11 | SAGGSAGGSKKKKKKVKKKKVYRVKIKTKDGKLIEIEVSVEDLEKIKKAAEKAGFEIVEIEPVSAGGSAGGS [r12_891_TrROS_Hall] | 2.39 ± 0.076 kcal/mol | 3.86 ± 0.18 kcal/mol | 3.42 ± 0.2 kcal/mol
12 | SAGGPPRPVRIDIDPDAGSIEIMFPNGWPYEIPIPPDSIDEITLDPNDHVIEIKMPGKEIKFDIEPVSAGGS [r16_104_TrROS] | -0.376 ± 0.12 kcal/mol | 0.757 ± 0.029 kcal/mol | 0.443 ± 0.11 kcal/mol
13 | SAGGGMMVLKVSQPVLLLSTVTLPNGFPKFLPVSPLSLETTVTFTGSDQDAEELAAELKAQGATVTEESAGG [r13_452_JUSTAS] | 0.585 ± 0.025 kcal/mol | 0.719 ± 0.12 kcal/mol | 0.715 ± 0.078 kcal/mol
14 | SGSSLLSETTEFVELPDDTFATVSTSTYYIPGSGEIVTKTTVTIYPPTGPPVTTTYTSTTTPEGVLVTESSA [r9_856_JUSTAS] | 2.38 ± 0.13 kcal/mol | 3.59 ± 0.15 kcal/mol | 3.31 ± 0.2 kcal/mol
15 | SAGGSAGGSMSPEEAKKLAEELAKKLGLEKVEIVEIKVEVDEETNEIKVTIYIRGKDGKWYKLSAGGSAGGS [r12_508_TrROS_Hall] | 3.48 ± 0.18 kcal/mol | 4.2 ± 0.07 kcal/mol | 3.96 ± 0.074 kcal/mol
16 | SAGGSAGGSAGMTLKVEVKVKVKVFDENGKLVREEEVTVEVEIELEPAPELRFLSEEELKSAGGSAGGSAGG [r17_325_TrROS_Hall] | 1.24 ± 0.053 kcal/mol | 2.63 ± 0.057 kcal/mol | 2.12 ± 0.11 kcal/mol
17 | SAGFKIKIEPIEVLPNGTVKYKAIIETEKEKYEVEAFYNPKTGLIYIYSPKTGSIMKINPKTGKIILIPSAG [r14_260_TrMRF] | 3.44 ± 0.15 kcal/mol | 4.18 ± 0.11 kcal/mol | 4.03 ± 0.2 kcal/mol
18 | SMKEPPKVTIEIEYDEETETVRVRITLEDGTEIEVEVEAENKEEALREAIREALKKIFPELTDEQIEKLLSA [r9_634_TrROS_Hall] | 3.45 ± 0.24 kcal/mol | 1.58 ± 0.11 kcal/mol | 2.72 ± 0.29 kcal/mol
19 | SAGGDWMLVIEIEIEGQPTPDGQIKVEISIEIELVRPPPPPITPWDRMAEEARDKNPNIPPDDPEAMTSAGG [r13_136_TrROS] | 2.12 ± 0.11 kcal/mol | 1.7 ± 0.095 kcal/mol | 1.93 ± 0.2 kcal/mol
20 | SAGGSAGGMKVRVKIEVEGKTLEIEIEVPEEKREEALEKAKKLAEKLAEELDVEVKIVEVEEEPSAGGSAGG [r6_459_TrROS_Hall] | 1.04 ± 0.034 kcal/mol | 2.41 ± 0.073 kcal/mol | 2.01 ± 0.12 kcal/mol
21 | NRYYRITIRNPDGMPIELFVRRSPNGEYMVRVKINMPNKKPKTIWFPFKSPEDILEEIRKHLPWDIEIEPWS [r1_137_TrROS] | 3.46 ± 0.089 kcal/mol | 3.28 ± 0.053 kcal/mol | 3.31 ± 0.087 kcal/mol

Row | Sequence | folding stability dG unfold [1] | folding stability dG unfold [2] | folding stability dG unfold [3]
22 | SAGGSAGGPSPNQPERQQVQVEAKIRFPDPNGKEWTIEITAYGSVGDARDAARSLAREIKNGKISAGGSAGG [r6_944_TrROS] | -0.494 ± 0.17 kcal/mol | -0.782 ± 0.49 kcal/mol | -0.484 ± 0.16 kcal/mol
23 | SAGGSAGGSAGMTLTVTSPSSDTPIGTIELPSSLSEEELEAAVEAVRAALPPDVTVEVTGSAGGSAGGSAGG [r11_1081_JUSTAS] | 1.41 ± 0.084 kcal/mol | 0.954 ± 0.046 kcal/mol | 1.13 ± 0.093 kcal/mol
24 | SAGGSAGGSAGGMPIPIIVIPTPPNGNFTPEQIKEVAEKLNDPVVLTEESDNSRVILVGSAGGSAGGSAGGS [r10_642_TrMRF] | 0.928 ± 0.029 kcal/mol | -0.135 ± 0.08 kcal/mol | 0.519 ± 0.16 kcal/mol
25 | SAGGSAGGSMKYYKTKDGKIVKAPPIETVKLKLKLEINGKKIEIEIEMSKEEIDKLLKELEKKSAGGSAGGS [r20_148_TrROS_Hall] | 0.717 ± 0.051 kcal/mol | 1.27 ± 0.17 kcal/mol | 1.05 ± 0.13 kcal/mol
26 | SAGGSAGMDPSKVSLSISTKTYTDTATGRKVEELYFEGSGKKVTVTTLPDGTKIVTYENGVVIEVESAGGSA [r15_617_JUSTAS] | 0.758 ± 0.024 kcal/mol | -0.672 ± 0.24 kcal/mol | 0.314 ± 0.054 kcal/mol
27 | SAGGEKKPVKVKIEVESFKLPNVLVLKAKVYLPATGKWYEAIVIEGPTKTLVVIKFPDGSSLVLELNSAGGS [r16_657_TrMRF] | 2.97 ± 0.17 kcal/mol | 4.12 ± 0.12 kcal/mol | 3.9 ± 0.31 kcal/mol
28 | SAGGSAGGKETKTITMIIKVKDENGKELKAGDKVEIEINGKKITIEVTYNKKTGYLVVKATIKPSAGGSAGG [r6_657_TrROS_Hall] | 2.47 ± 0.096 kcal/mol | 3.87 ± 0.11 kcal/mol | 3.37 ± 0.17 kcal/mol
29 | SAGGSAGGSDVSEEELRAIAEEIAAELGLSDITVEVEKLPTAVVRITITNPATGETIEIEVPESAGGSAGGS [r12_1000_JUSTAS] | 1.75 ± 0.038 kcal/mol | 1.77 ± 0.061 kcal/mol | 1.79 ± 0.047 kcal/mol
30 | SAGGSAGGSAGGSMKIVEVELIEYDEETKEFVYVFRVRLEDGSERLIVITPDGEMRVVPSAGGSAGGSAGGS [r4_35_TrROS_Hall] | 2.61 ± 0.064 kcal/mol | 3.481 ± 0.031 kcal/mol | 3.26 ± 0.055 kcal/mol
31 | SAGGGPLSPGSVPVEEEVTEVVEDPATGTVTTRSRVRYPDGVEVEVTTTTPAPGLPEVSTTEVTVRPASAGG [r13_894_JUSTAS] | 0.978 ± 0.044 kcal/mol | 0.948 ± 0.018 kcal/mol | 0.929 ± 0.11 kcal/mol
32 | SAGGMITLTLPIPAEFLEKHGLDEAKKIVLEKAKEELKKLGLSEKYPIKKIEITPEPESLTATIVILSAGGS [r16_368_JUSTAS] | 2 ± 0.036 kcal/mol | 1.95 ± 0.026 kcal/mol | 2 ± 0.04 kcal/mol
33 | SAGGSAGGSAKSVVRIKIYNKKTGKVLEIEIPENMTEEEIKKLAEELAKKNNVEIVEVEKVPSAGGSAGGSA [r18_322_TrROS_Hall] | 1.83 ± 0.051 kcal/mol | 2.99 ± 0.051 kcal/mol | 2.63 ± 0.12 kcal/mol
34 | SAGMEPTTITVDVTIPPEVFARLSEEELKEKVLAELGIPESLPVEVEISRKEVKLDGKTVYVVPMTIVGSAG [r14_334_JUSTAS] | 0.117 ± 0.085 kcal/mol | 0.652 ± 0.11 kcal/mol | 0.407 ± 0.089 kcal/mol
35 | SAGGSAGGSAGLKPEVEALVRVVLKLPEGERVVLVKVKTLEELFELDLPEVVSIEIRPLKSAGGSAGGSAGG [r17_290_TrMRF] | 1.28 ± 0.028 kcal/mol | 1.73 ± 0.049 kcal/mol | 1.6 ± 0.064 kcal/mol
36 | SAGGSAGGSAGGMTIVLNIPKEELTEEEIKKLKESLPSDNPVKIIVKPKPPRKFYPKSTISAGGSAGGSAGG [r7_979_JUSTAS] | 0.605 ± 0.024 kcal/mol | 1.12 ± 0.048 kcal/mol | 0.925 ± 0.065 kcal/mol
37 | SAAAENGEITISVEVELDPETNTLTIKRVEITVNGKLIATATLTITLPPPPPEPEETVYVHPDDPEALKSAG [r14_571_TrROS_Hall] | 1.54 ± 0.023 kcal/mol | 1.97 ± 0.038 kcal/mol | 1.85 ± 0.093 kcal/mol
38 | SAGGSAKRKVEIEIVLSAEELEEAIKEGKPLSEELQKRIEELLKKAEEAGIDEVRIRIVPPGLPEPSAGGSA [r15_304_TrROS_Hall] | 0.89 ± 0.089 kcal/mol | 1.22 ± 0.036 kcal/mol | 1.16 ± 0.12 kcal/mol
39 | SVKVEVSISYDPETNTITITVRVYYKDENGNWTEVATITITIKIELPPPPPKTITLKPGVKTKEEAKKALSA [r9_888_TrROS_Hall] | 2.63 ± 0.28 kcal/mol | 3.54 ± 0.26 kcal/mol | 3.01 ± 0.23 kcal/mol
40 | SAGGSAGGGSFTLTEEPGGVLTITTPDKTLTVNLEGVTPDPNSDTTFSFTLSLDPDDSASVTSSSAGGSAGG [r6_202_JUSTAS] | 1.44 ± 0.023 kcal/mol | 1.43 ± 0.091 kcal/mol | 1.47 ± 0.1 kcal/mol
41 | SAGGSAGGSAGPKILSIEEYDPENGYITVIAELTGKPVRMKVKFIPGKKEIKIIEIEPLDSAGGSAGGSAGG [r11_1066_TrMRF] | 1.81 ± 0.07 kcal/mol | 2.49 ± 0.036 kcal/mol | 2.36 ± 0.1 kcal/mol
